Measurements reported in patent US20240317834A1, “COMPOSITIONS AND METHODS FOR NEUROLOGICAL DISEASES” (CODA BIOTHERAPEUTICS, INC., priority 2020, published 2024).

Tested on: Lenti-X 293T cells
Assay: YFP fluorescence quenching anion reporter plate reader assay of engineered receptors stimulated with acetylcholine or a non-native ligand
Type: cell-based
Method in brief: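 YFP quench was followed for about 1 min 43 s after ligand delivered in iodide-based ECS, pH 7.2. Values are end-of-read fluorescence (last 10 s) divided by the pre-ligand baseline (15 s). Cells were LX293T, transfected with receptor DNA a day before the assay.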

B1: CODA409: engineered chimeric LGIC receptor, Y210W in SEQ ID NO: 33 (protein)
chain: MRCSPGGVWLALAASLLHVSLQGEFQRKLYKELVKNYNPLERPVANDSQPLTVYFSLSLLQIMDVDEKNQVLTTNIWLQMSWTDHYLQWNVSEYPGVKTVRFPDGQIWKPDILLYNSADERFDATFHTNVLVNSSGHCQYLPPGIFKSSCPMDLKNFPMDVQTCKLKFGSWSYGGWSLDLQMQEADISGYIPNGEWDLVGIPGKRSERFWECCKEPYPDVTFTVTMRRRMGYYLIQMYIPSLLIVILSWISFWINMDAAPARVGLGITTVLTMTTQSSGSRASLPKVSYVKAIDIWMAVCLLFVFSALLEYAAVNFVSRQHKELLRFRRKRRHHKSPMLNLFQEDEAGEGRFNFSAYGMGPACLQAKDGISVKGANNSNTTNPPPAPSKSPEEMRKLFIQRAKKIDKISRIGFPMAFLIFNMFYWIIYKIVRREDVHNQ
modifications: synthetic sequence of chimeric LGIC
For B1, the “YFP fluorescence quenching using CNL001” value (1 nM CNL001, first column) was −8.914%, the “YFP fluorescence quenching using CNL001” value (1 nM CNL001, second column) was −14.319% and the “YFP fluorescence quenching using TC-5619/Bradanicline” value (1 nM brd) was −13.45%. The “YFP fluorescence quenching using TC-5619/Bradanicline” value (3 nM brd) was −0.64%, the “YFP fluorescence quenching using Varenicline” value (3 nM var, first column) was 7.776 and the “YFP fluorescence quenching using Varenicline” value (3 nM var, second column) was −2.964. For the same molecule, the “YFP fluorescence quenching using CNL001” value (10 nM CNL001, first column) was −1.444%, the “YFP fluorescence quenching using CNL001” value (10 nM CNL001, second column) was 4.393% and the “YFP fluorescence quenching using TC-5619/Bradanicline” value (10 nM brd) was 37.3%. The “YFP fluorescence quenching using TC-5619/Bradanicline” value (30 nM brd) was 76.36%, the “YFP fluorescence quenching using Facinicline” value (30 nM fac) was −10.93 and the “YFP fluorescence quenching using Varenicline” value (30 nM var, first column) was −5.568. For the same molecule, the “YFP fluorescence quenching using Varenicline” value (30 nM var, second column) was 3.024, the “YFP fluorescence quenching using CNL001” value (50 nM CNL001, first column) was 11.897% and the “YFP fluorescence quenching using CNL001” value (50 nM CNL001, second column) was 11.434%. The “YFP fluorescence quenching using ABT-126” value (50 nM abt) was 8.23%, the “YFP fluorescence quenching using CNL001” value (100 nM CNL001, first column) was 12.719% and the “YFP fluorescence quenching using CNL001” value (100 nM CNL001, second column) was 16.053%. The “YFP fluorescence quenching using CNL002” value (100 nM CNL002) was −14.92%, the “YFP fluorescence quenching using ABT-126” value (100 nM abt) was 55.53% and the “YFP fluorescence quenching using AZD-0328” value (100 nM azd0328) was −6.57%. For the same molecule, the “YFP fluorescence quenching using TC-5619/Bradanicline” value (100 nM brd) was 72.72%, the “YFP fluorescence quenching using ABT-126” value (300 nM abt) was 74.82% and the “YFP fluorescence quenching using AZD-0328” value (300 nM azd0328) was −4.84%. For the same molecule, the “YFP fluorescence quenching using TC-5619/Bradanicline” value (300 nM brd) was 75.47%, the “YFP fluorescence quenching using Facinicline” value (300 nM fac) was −5.82 and the “YFP fluorescence quenching using Varenicline” value (300 nM var, first column) was 2.815. For the same molecule, the “YFP fluorescence quenching using Varenicline” value (300 nM var, second column) was 3.06, the “YFP fluorescence quenching using ABT-126” value (500 nM abt) was 77.39% and the “YFP fluorescence quenching using Varenicline” value (500 nM var, first column) was 1.766. For the same molecule, the “YFP fluorescence quenching using Varenicline” value (500 nM var, second column) was 2.819, the “YFP fluorescence quenching using CNL001” value (1 uM CNL001, first column) was 14.077% and the “YFP fluorescence quenching using CNL001” value (1 uM CNL001, second column) was 15.495%. The “YFP fluorescence quenching using CNL002” value (1 uM CNL002) was −0.85%, the “YFP fluorescence quenching using ABT-126” value (1 uM abt) was 77.77% and the “YFP fluorescence quenching using TC-5619/Bradanicline” value (1 uM brd) was 78.73%. The “YFP fluorescence quenching using TC-6987” value (1 uM tc6987) was 62.82, the “YFP fluorescence quenching using Varenicline” value (1 uM var, first column) was 1.844 and the “YFP fluorescence quenching using Varenicline” value (1 uM var, second column) was −4.059. The “YFP fluorescence quenching using ABT-126” value (3 uM abt) was 69.33%, the “YFP fluorescence quenching using ABT-126” value (10 uM abt) was 74.79% and the “YFP fluorescence quenching using Facinicline” value (10 uM fac) was 60.97. The “YFP fluorescence quenching using TC-6987” value (10 uM tc6987) was 78.66, the “YFP fluorescence quenching using CNL002” value (30 uM CNL002) was 29.62% and the “YFP fluorescence quenching using ABT-126” value (30 uM abt) was 75.61%. The “YFP fluorescence quenching using AZD-0328” value (30 uM azd0328) was 81.64%, the “YFP fluorescence quenching using Facinicline” value (30 uM fac) was 57.77 and the “YFP fluorescence quenching using ABT-126” value (50 uM abt) was 75.72%. For the same molecule, the “YFP fluorescence quenching using ABT-126” value (100 uM abt) was 78.52%, the “YFP fluorescence quenching using TC-6987” value (500 uM tc6987) was 70.35 and the “percent quench of YFP fluorescence, 10 uM ach” value (acetylcholine 10 uM) was −5.43%. The “percent quench of YFP fluorescence, 100 uM ach” value (acetylcholine 100 uM) was 17.14%, the “percent quench of YFP fluorescence, 1 mM ach” value (acetylcholine 1 mM) was 78.84% and the “percent quench of YFP fluorescence, 3 mM ach” value (acetylcholine 3 mM) was 78.55%.
